Assay results: article PMC8718881, “Engineering of the Recombinant Expression and PEGylation Efficiency of the Therapeutic Enzyme Human Thymidine Phosphorylase” (Frontiers in Bioengineering and Biotechnology, 2021)

Biological target: the molecule itself
Experiment: SEC; analytical SEC; purified protein about 2 mg/ml in PBS; TSKgel G4000SWxl; mobile phase 90% phosphate buffer (50 mM sodium phosphate, 200 mM NaCl, pH 7.2) and 10% ethanol; BioRad gel filtration standard as markers

B1: HsTP^218 (human thymidine phosphorylase truncated before K34, C-terminal His6-tag) (enzyme)
chain: MGKQLPELIRMKRDGGRLSEADIRGFVAAVVNGSAQGAQIGAMLMAIRLRGMDLEETSVLTQALAQSGQQLEWPEAWRQQLVDKHSTGGVGDKVSLVLAPALAACGCKVPMISGRGLGHTGGTLDKLESIPGFNVIQSPEQMQVLLDQAGCCIVGQSEQLVPADGILYAARDVTATVDSLPLITASILSKKLVEGLSALVVDVKFGGAAVFPNQEQARELAKTLVGVGASLGLRVAAALTAMDKPLGRCVGHALEVEEALLCMDGAGPPDLRDLVTTLGGALLWLSGHAGTQAQGAARVAAALDDGSALGRFERMLAAQGVDPGLARALCSGSPAERRQLLPRAREQEELLAPADGTVELVRALPLALVLHELGAGRSRAGEPLRLGVGAELLVDVGQRLRRGTPWLRVHRDGPALSGPQSRALQEALVLSDRAPFAAPSPFAELVLPPQQ
notes: starting methionine and a glycine scar residue from cloning with the NcoI site; they precede K34 (M1-G2-K3-Q4); human thymidine phosphorylase (HsTP, TYMP), lacking the first thirty-three residues of the full-length protein; starts at K34, full-length numbering of UniProt P19971; Codon-optimized synthetic gene in pET28a; No cleavage of the His6-tag is described; also called expression-optimized …
- stoichiometry N: 2
